Target: T1, PatZ-L813o-NBAK (E. coli, UniProt P76594 1-886, L813o-NBAK, o-NBAK (o-nitrobenzyl alcohol-derived lysine, unnatural amino acid photo-crosslinker) at 813)
T1 construct: PatZ, protein lysine acetyltransferase of E. coli, amber codon at L813 read as o-NBAK; o-NBAK is a lysine derivative; also called PatZ-L813o-NBAK mutant; o-NBAK encoded enzyme; source: E. coli BL21(DE3), in living cells; also purified (Ni-NTA) for in vitro crosslinking
T1 sequence (looked up): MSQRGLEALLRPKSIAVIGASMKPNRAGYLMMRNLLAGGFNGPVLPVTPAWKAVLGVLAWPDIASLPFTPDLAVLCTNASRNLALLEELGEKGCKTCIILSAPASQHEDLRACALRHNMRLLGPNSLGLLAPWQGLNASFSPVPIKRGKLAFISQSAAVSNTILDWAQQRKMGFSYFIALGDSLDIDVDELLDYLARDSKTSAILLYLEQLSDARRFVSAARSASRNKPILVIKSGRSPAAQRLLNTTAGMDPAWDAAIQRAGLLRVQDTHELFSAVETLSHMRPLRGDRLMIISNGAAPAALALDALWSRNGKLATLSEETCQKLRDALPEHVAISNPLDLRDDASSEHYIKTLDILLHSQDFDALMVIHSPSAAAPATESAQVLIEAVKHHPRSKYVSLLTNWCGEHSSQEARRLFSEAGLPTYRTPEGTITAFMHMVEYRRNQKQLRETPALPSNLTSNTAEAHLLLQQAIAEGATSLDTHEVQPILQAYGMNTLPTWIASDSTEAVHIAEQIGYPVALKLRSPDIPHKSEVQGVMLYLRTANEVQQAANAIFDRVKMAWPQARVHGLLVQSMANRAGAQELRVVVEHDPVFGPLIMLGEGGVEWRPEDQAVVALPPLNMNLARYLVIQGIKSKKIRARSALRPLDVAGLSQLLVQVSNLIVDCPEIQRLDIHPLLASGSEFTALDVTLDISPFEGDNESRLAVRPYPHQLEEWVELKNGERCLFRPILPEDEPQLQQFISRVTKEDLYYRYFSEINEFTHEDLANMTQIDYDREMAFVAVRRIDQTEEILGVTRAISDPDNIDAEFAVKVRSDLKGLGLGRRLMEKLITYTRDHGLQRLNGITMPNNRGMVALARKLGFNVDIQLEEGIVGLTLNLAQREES
Experiment: cross-linking; in vitro: purified o-NBAK enzyme mixed with purified partner protein in PBS 150 mM NaCl pH 7.5, 365 nm UV 15 min on ice, SDS-PAGE, extra band cut, LC-MS/MS of crosslinked peptides
Details: both partners purified

B1: DnaJ (purified recombinant) (natural protein, E. coli, UniProt P08622 1-376, looked up)
chain: MAKQDYYEILGVSKTAEEREIRKAYKRLAMKYHPDRNQGDKEAEAKFKEIKEAYEVLTDSQKRAAYDQYGHAAFEQGGMGGGGFGGGADFSDIFGDVFGDIFGGGRGRQRAARGADLRYNMELTLEEAVRGVTKEIRIPTLEECDVCHGSGAKPGTQPQTCPTCHGSGQVQMRQGFFAVQQTCPHCQGRGTLIKDPCNKCHGHGRVERSKTLSVKIPAGVDTGDRIRLAGEGEAGEHGAPAGDLYVQVQVKQHPIFEREGNNLYCEVPINFAMAALGGEIEVPTLDGRVKLKVPGETQTGKLFRMRGKGVKSVRGGAQGDLLCRVVVETPVGLNERQKQLLQELQESFGGPTGEHNSPRSKSFFDGVKKFFDDLTR
notes: DnaJ, E. coli; may be in the Supplementary Information
Does B1 bind?
Result: binds

— paper PMC10874396, “Spatiotemporal and direct capturing global substrates of lysine-modifying enzymes in living cells” (Nature Communications, 2024)
